Results as given in patent publication US20230144436A1 (DYNE THERAPEUTICS, published 2023).

T1: cynomolgus monkey transferrin receptor 1 (cynomolgus monkey (Macaca fascicularis), UniProt Q5RDH6 89-760 (Pongo abelii entry), limits assumed)
T1 construct: also called cyTfR1; Cyno TfR1
T1 chain: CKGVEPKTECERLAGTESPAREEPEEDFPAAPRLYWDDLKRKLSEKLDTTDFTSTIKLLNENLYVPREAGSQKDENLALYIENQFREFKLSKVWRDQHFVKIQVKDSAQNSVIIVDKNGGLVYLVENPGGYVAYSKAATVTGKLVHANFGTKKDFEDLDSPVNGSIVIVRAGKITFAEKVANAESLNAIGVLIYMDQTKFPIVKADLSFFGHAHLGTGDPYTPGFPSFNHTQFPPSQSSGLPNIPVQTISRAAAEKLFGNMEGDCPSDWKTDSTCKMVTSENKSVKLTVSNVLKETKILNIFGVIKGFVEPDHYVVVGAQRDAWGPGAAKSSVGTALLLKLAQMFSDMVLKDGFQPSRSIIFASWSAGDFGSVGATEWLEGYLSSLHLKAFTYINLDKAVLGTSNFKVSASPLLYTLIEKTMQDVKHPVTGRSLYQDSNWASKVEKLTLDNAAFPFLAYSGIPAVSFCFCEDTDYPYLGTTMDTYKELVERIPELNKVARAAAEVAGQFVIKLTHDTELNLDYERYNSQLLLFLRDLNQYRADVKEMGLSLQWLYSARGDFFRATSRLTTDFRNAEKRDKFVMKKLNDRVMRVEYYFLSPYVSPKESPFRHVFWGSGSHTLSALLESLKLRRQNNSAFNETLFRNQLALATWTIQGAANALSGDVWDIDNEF

T2: human transferrin receptor 2 (human, UniProt Q9UP52 105-801, limits assumed)
T2 construct: also called human TfR2; hTfR2
T2 sequence (looked up): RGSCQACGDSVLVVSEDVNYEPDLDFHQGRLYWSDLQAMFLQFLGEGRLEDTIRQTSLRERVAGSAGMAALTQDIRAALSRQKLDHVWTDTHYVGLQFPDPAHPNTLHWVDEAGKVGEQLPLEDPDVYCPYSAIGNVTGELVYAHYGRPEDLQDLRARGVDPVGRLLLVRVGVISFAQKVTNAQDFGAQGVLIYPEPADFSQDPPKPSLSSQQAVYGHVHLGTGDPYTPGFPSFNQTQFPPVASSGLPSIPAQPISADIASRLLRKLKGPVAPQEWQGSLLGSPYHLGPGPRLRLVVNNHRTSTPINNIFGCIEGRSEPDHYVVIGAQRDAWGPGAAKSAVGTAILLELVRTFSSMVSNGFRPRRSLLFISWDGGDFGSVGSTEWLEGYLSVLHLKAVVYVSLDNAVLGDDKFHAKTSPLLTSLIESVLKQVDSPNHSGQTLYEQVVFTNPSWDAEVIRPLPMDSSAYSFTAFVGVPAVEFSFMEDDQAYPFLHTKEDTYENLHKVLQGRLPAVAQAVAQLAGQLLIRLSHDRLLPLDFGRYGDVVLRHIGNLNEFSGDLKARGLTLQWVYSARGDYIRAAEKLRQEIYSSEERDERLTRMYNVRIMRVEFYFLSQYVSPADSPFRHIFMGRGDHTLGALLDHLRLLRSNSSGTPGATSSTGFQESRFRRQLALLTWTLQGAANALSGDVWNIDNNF

T3: cynomolgus monkey transferrin receptor 1 (cynomolgus monkey, UniProt Q5RDH6 89-760 (Pongo abelii entry), limits assumed)
T3 construct: also called cTfR1; cyTfR1
T3 chain: T1 chain

B1: 9-C4 (antibody, V domains shown)
VH: EVQLMESGGDLVKPGGSLKLSCAASGFTFSSYGLSWVRQTPDKRLEWVATITSGGSYTYYPDSVKGRFTISRDNARNTLYLQMFSLKSEDTAMYYCALWSLDYWGQGTTLTVSS
VL: QIVLTQSPAIMSASPGEKVTMTCSANSSLSYMHWYQQKPGTSPKRWIYDTSELASGVPARFSGSGSGTSYSLTISSMEAEDAATYYCHQRRSYPWTFGGGTKLEIK
notes: Tested as a mouse monoclonal IgG; also called 9-C04
B2: 3-M12 (antibody, V domains shown)
VH: DVQLQESGPGLVKPSQSLSLTCSVTGYSITSGYYWNWIRQFPGNKLEWMGYITFDGANNYNPSLKNRISITRDTSKNQFFLKLTSVTTEDTATYYCTRSSYDYDVLDYWGQGTTLTVSS
VL: DIQMTQTTSSLSASLGDRVTISCRASQDISNFLNWYQQRPDGTVKLLIYYTSRLHSGVPSRFSGSGSGTDFSLTVSNLEQEDIATYFCQQGHTLPYTFGGGTKLEIK
notes: Tested as a mouse monoclonal IgG
B3: 3-A4 (antibody, V domains shown)
VH: EVQLQQSGAELVRPGASVKLSCTASGFNIKDDYMYWVKQRPEQGLEWIGWIDPENGDTEYASKFQDKATVTADTSSNTAYLQLSSLTSEDTAVYYCTLWLRRGLDYWGQGTSVTVSS
VL: DIVMTQAAPSVPVTPGESVSISCRSSKSLLHSNGYTYLFWFLQRPGQSPQLLIYRMSNLASGVPDRFSGSGSGTAFTLRISRVEAEDVGVYYCMQHLEYPFTFGGGTKLEIK
notes: Tested as a mouse monoclonal IgG; also called 3-A04
B4: 15G11 (antibody, V domains shown)
VH: QVQLQQPGAELVKPGASVKLSCKASGYTFTSYWMHWVKQRPGQGLEWIGEINPTNGRTNYIEKFKSKATLTVDKSSSTAYMQLSSLTSEDSAVYYCARGTRAYHYWGQGTSVTVSS
VL: DIQMTQSPASLSVSVGETVTITCRASDNLYSNLAWYQQKQGKSPQLLVYDATNLADGVPSRFSGSGSGTQYSLKINSLQSEDFGTYYCQHFWGTPLTFGAGTKLELK
notes: Known anti-TfR1 antibody used as control; also called control antibody 15G11; ctrl-15G11
B5: 9-K23 (antibody, V domains shown)
VH: QVTLKESGPGMLQPSQTLSLTCSFSGFSLNTYDVGVGWIRQPSGKGLEWLANIWWNDDKYYNSALKSRLTISKDTSNNQVFLKISSVDTADTATYYCTLYSYDGGFAYWGQGTLVTVSA
VL: QIVLTQSPAIMSASLGERVTMTCTASSSVSSSYLHWYQQKPGSSPKLWIYSTSNLASGVPARFSGSGSGTSYSLTISSMEAEDAATYYCHQYHRSPYTFGGGTKLEIK
notes: as for B2
B6: 10-H2 (antibody, V domains shown)
VH: EVQLVESGGDLVKPGGSLKLSCAASGFTFSDYGMHWVRQGPEKGLEWVAYINSGSSTIYYADTVKGRFTISRDNAKNTLFLQMTSLRSEDTAMYYCARPGDYDNYAMDYWGQGTSVTVSS
VL: DIVMTQSHKFLSTSVGDRVSITCKASQDVSVAVAWYQQKPGQSPKLLIYWAYTRHTGVPDRFTGSGSGTEYTLTISSVQAEDLALYYCQQHYNTPPWTFGGGTKLEIK
notes: Tested as a mouse monoclonal IgG; also called 10-H02
B7: 5-H12 (antibody, V domains shown)
VH: QIQLQQSGPELVRPGASVKISCKASGYSFTDYCINWVNQRPGQGLEWIGWIYPGSGNTRYSERFKGKATLTVDTSSNTAYMQLSSLTSEDSAVYFCAREDYYPYHGMDYWGQGTSVTVSS
VL: DIVLTQSPTSLAVSLGQRATISCRASESVDGYDNSFMHWYQQKPGQPPKLLIFRASNLESGIPARFSGSGSRTDFTLTINPVEAADVATYYCQQSSEDPWTFGGGTKLEIK
notes: as for B2
B8: 9-D4 (antibody, V domains shown)
VH: QVQLQQSGTELARPGASVKLSCKASGFTFTDYGINWVKQRTGQGLEWIGEIYPSSGNSYYNEKFKAKATLTADKSSSTAYMELRSLTSEDSAVYFCARSTYYGSPIDYWGQGTTLTVSS
VL: DIVMTQSHKFMSTPVGDRVSITCKASQDVDTTVAWYQQKPGQSPKLLIYWASTRQIGVPDRFTGSGSGTDFTLTISNVQSEDLADYFCQQYSTYPLTFGGGTKLEIK
notes: Tested as a mouse monoclonal IgG; also called 9-D04
B9: 3-E5 (antibody, V domains shown)
VH: EIQMKQSGAELVKPGASVKISCKASGYSFTGYNMNWVKQSHGKSLEWIGNINPYYGSTGYNQKFKGKATLTVDKSSSTAYMQLNSLTSEDSAVYYCARGDYGYDEGTWFAYWGQGTLVTVSA
VL: DIVMSQSPSSLAVSAGEKVTMSCKSSQSLLNSRTRKNYLAWYQQKPEQSPKLLIYWASTRESGVPDRFTGSGSGTDFTLTISSVQAEDLAVYYCKQSYNLPFTFGSGTKLEIK
notes: Tested as a mouse monoclonal IgG; also called 3-E05
B10: 2-H19 (antibody, V domains shown)
VH: EVQLQQSGAELVRSGASVKLSCTASGFNIKDYYMHWVKQRPEQGLEWIGWIDPESGDTEYAPKFQGRATMTADTSSNTAYMQLSSLTSEDTAVYYCYGHDYRVDCWGQGTSVTVSS
VL: DVVMTQTPLSLPVSLGDQASISCRSSQSLVHSNGNTYLHWYLQKPGQSPKLLIYKVSNRFSGVPDRFSGSGSGTDFTLKISRVEAEDLGVYFCSQSTHIPWTFGGGTKLEIK
notes: as for B2
B11: anti-TfR antibody shown in Table 7, unconjugated (Example 18) (antibody, V domains shown)
VH: QVQLVQSGAEVKKPGESLKISCKGSGYSFTSYWIGWVRQMPGKGLEWMGIIYPGDSDTRYSPSFQGQVTISADKSISTAYLQWSSLKASDTAMYYCARFPYDSSGYYSFDYWGQGTLVTVSS
VL: not shown
notes: also called anti-TfR alone; unconjugated anti-TfR
B12: anti-TfR hIgG1 (with L234A/L235A mutations in HC constant region), Table 7 clone (antibody, V domains shown)
VH: B11 VH
VL: not shown
notes: Tied by the description 'anti-TfR IgG heavy chain (with human IgG1 constant region mutant L234A/L235A)'
B13: anti-TfR antibody shown in Table 7 conjugated to a DMPK-targeting oligonucleotide (control DMPK-ASO) (antibody, V domains shown)
VH: B11 VH
VL: not shown
notes: Antibody-oligonucleotide conjugate; For the uptake assay the antibody was conjugated to several different DMPK-targeting oligonucleotides and labeled with Cypher5e; also called oligonucleotide-conjugated anti-TfR; anti-TfR Fab conjugates
B14: anti-TfR FAB, Table 7 clone (Fab, V domains shown)
VH: B11 VH
VL: not shown

Legend:
[1] = biological target: T4, human transferrin receptor 1 (human, UniProt P02786 89-760, limits assumed); assay: average KD, antibody alone; method not given
T4 construct: also called hTfR1; huTfR1
T4 sequence (P02786 89-760 limits assumed): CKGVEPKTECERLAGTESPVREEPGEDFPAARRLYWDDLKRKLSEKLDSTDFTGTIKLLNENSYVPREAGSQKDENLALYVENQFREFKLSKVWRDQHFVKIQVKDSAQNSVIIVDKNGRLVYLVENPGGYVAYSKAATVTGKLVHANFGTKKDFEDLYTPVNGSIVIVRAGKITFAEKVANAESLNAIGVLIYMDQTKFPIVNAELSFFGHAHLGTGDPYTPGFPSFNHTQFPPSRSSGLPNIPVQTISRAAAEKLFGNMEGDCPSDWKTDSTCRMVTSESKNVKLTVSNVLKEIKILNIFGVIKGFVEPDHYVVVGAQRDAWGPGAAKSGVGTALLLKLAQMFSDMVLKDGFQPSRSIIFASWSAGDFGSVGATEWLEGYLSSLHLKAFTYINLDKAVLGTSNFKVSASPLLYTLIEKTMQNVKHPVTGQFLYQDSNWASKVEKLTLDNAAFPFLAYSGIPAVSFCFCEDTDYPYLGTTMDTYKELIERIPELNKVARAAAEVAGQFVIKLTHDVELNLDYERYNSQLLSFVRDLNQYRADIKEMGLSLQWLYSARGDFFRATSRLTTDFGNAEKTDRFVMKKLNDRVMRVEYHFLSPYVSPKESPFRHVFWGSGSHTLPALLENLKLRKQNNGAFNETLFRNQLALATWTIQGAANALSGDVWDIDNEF

[2] = biological target: T1, cynomolgus monkey transferrin receptor 1; assay: average KD, antibody alone; method not given
[3] = biological target: T4, human transferrin receptor 1; assay: Carterra LSA SPR array, IgG captured on anti-IgG lawn, hTfR1 as analyte, 25 C, 1:1 Langmuir fit
Experimental: Selected anti-TfR1 antibodies were tested for their binding affinity to human TfR1 for measurement of Ka (association rate constant), Kd (dissociation rate constant), and KD (affinity). […] The binding experiment was performed on Carterra LSA at 25 C. An anti-mouse IgG and anti-human IgG antibody “lawn” was prepared on a HC30M chip by amine coupling. 59 IgGs (58 mouse mAbs and 1 human mAb) were captured on the chip. Dilution series of hTfR1, cyTfR1, and hTfR2 were injected to the chip for binding (starting from 1000 nM, 1:3 dilution, 8 concentrations).
Binding data were referenced by subtracting the responses from a buffer analyte injection and globally fitting to a 1:1 Langmuir binding model for estimate of Ka (association rate constant), Kd (dissociation rate constant), and KD (affinity) using the Carterra™ Kinetics software. 5-6 concentrations were used for curve fitting.

[4] = biological target: T2, human transferrin receptor 2; assay: ELISA
[5] = biological target: T5, human transferrin receptor 1 (human, UniProt P02786 89-760, limits assumed); assay: ELISA
T5 construct: also called hTfR1; human TfR1

[6] = biological target: T3, cynomolgus monkey transferrin receptor 1; assay: ELISA

Row | Binder | Kd [1] [nM] | Kd [2] [nM] | Kd [3] [nM] | kon [3] [M⁻¹ s⁻¹] | binding result [4] | EC50 [5] [nM] | EC50 [6] [nM]
1 | B1 | 14.8 | 12 | 14.1 | 41000 |  |  | 
2 | B2 | 0.768 | 5.18 | 0.768 | 166000 |  |  | 
3 | B3 | 0.436 | 2.32 | 0.436 | 447000 |  |  | 
4 | B4 |  |  |  |  | no binding |  | 
5 | B5 | 0.32 | 0.662 | 0.401 | 54000 |  |  | 
6 | B6 | 2.72 | 12.4 | 2.72 | 126000 |  |  | 
7 | B7 | 202 | 12 | 208 | 66700 |  |  | 
8 | B8 | 5.8 | 0.868 | 5.86 | 42000 |  |  | 
9 | B9 | 0.455 | 0.671 | 0.455 | 22000 |  |  | 
10 | B10 | 2.06 | 5.75 | 2.06 | 222000 |  |  | 
11 | B11 |  |  |  |  |  | 26.6 | 33.6
12 | B12 |  |  |  |  | no binding |  | 
13 | B13 |  |  |  |  |  | 8.2 | 5.3
14 | B14 |  |  |  |  | no binding |  | 
